Laboratory results from US20240209399A1.

Biological target: TnsC-BP-NLS-VP64 (plasmid pSL2783, p6A_hCO_Vch_TnsC_BP-NLS-VP64) (Vibrio cholerae)
Test: cell-based or functional assay

TnsABf (plasmid pSL2669, pcDNA3.1_hCO_Vch_TnsA_BP-NLS_TnsB)
level of transcriptional activation (mCherry MFI relative to the non-targeting control, HEK293T reporter assay): 2 fold
